Drawing on PMC9678342, this text covers Kd and stoichiometry N for three substances.

Assay [1] has as its target HVEM (Homo sapiens) (UniProt Q92956). Particulars: cited from earlier work.
In assay [2] the target is HSV-1 glycoprotein D, C-terminal truncated mutant gD306 (aa 1-306) (herpes simplex virus type 1 (HSV-1)). Briefly: AUC; sedimentation velocity, gD alone at 5, 10 and 20 uM in PBS pH 7.8, 20 C, 40k rpm, absorbance optics, c(s) distributions in SedFit; monomer and dimer species, said not to be in a monomer-dimer equilibrium.
For assay [3], the target named is HSV-1 glycoprotein D, C-terminal truncated mutant gD285 (aa 1-285) (herpes simplex virus type 1 (HSV-1)). The description is as above.

Chain of UniProt Q92956 (Q92956 39-283): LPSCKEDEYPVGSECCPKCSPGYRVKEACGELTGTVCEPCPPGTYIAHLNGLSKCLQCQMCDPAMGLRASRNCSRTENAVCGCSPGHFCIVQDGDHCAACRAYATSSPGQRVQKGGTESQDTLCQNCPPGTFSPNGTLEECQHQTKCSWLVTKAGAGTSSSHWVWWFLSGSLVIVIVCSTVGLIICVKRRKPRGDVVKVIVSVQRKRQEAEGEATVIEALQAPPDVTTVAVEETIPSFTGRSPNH

As for “glycoprotein D (gD285) gD285 (from UniProt Q69091)”, the Kd in assay [1] was 37 nM. In the case of “HSV-1 glycoprotein D, C-terminal truncated mutant gD306 (aa 1-306) (domain or fragment)”, in assay [2], the stoichiometry N was 2. Substance “HSV-1 glycoprotein D, C-terminal truncated mutant gD285 (aa 1-285) (domain or fragment)” came in with a stoichiometry N in assay [3] of 2.

By Kd is commonly meant the constant that tells how readily two partners part at equilibrium. As usually defined, the stoichiometry N is a count of units in the complex or per binding partner.
